According to US7304127:
“And” between values parts separate entries of the source, which are not always exact repeats. Equal entries are not always repeated.

These binders were tested against HIV-1LAI envelope gp120 labeled with radioactive iodine (HIV-1 LAI), P03377 (assay: 125I-gp120, peptide array).

| Binder | counts minus background (counts per 20 min) |
| --- | --- |
| FACWLPYYIGISIDSFIL (modifications not checked) [CXCR4 249-266] | 202 |
| ALKTTVILILAFFACWLP (modifications not checked) [CXCR4 237-254] | 261 |
| SRGSSLKILSKGKRGGHS (modifications not checked) [CXCR4 321-338] | 169 |
| LTSVSRGSSLKILSKGKR (modifications not checked) [CXCR4 317-334] | 183 |
| DYHEDYGFSSFNDSSQEE (modifications not checked) [STRL33 5-22] | 3360 and 3690 |
| DSSQEEHQAFLQFSKVFL (modifications not checked) [STRL33 17-34] | 870 and 2150 |
| QKRKALKTTVILILAFFA (modifications not checked) [CXCR4 233-250] | 283 |
| TDIYLLNLAISDLFFLLT (modifications not checked) [CCR5 65-82] | 38 |
| LLNLAISDLFFLLTVPFW (modifications not checked) [CCR5 69-86] | 144 |
| KRGGHSSVSTESESSSFH (modifications not checked) [CXCR4 333-350] | 167 |
| AISDLFFLLTVPFWAHYA (modifications not checked) [CCR5 73-90] | 41 |
| IIKQGCEFENTVHKWISI (modifications not checked) [CXCR4 269-286] | 106 |
| IFYHKLQSLTDVFLVNLP (modifications not checked) [STRL33 57-74] | 1280 and 1260 |
| TVILILAFFACWLPYYIG (modifications not checked) [CXCR4 241-258] | 323 |
| AQHALTSVSRGSSLKILS (modifications not checked) [CXCR4 313-330] | 147 |
| LGAKFKTSAQHALTSVSR (modifications not checked) [CXCR4 305-322] | 200 |
| HKWISITEALAFFHCCLN (modifications not checked) [CXCR4 281-298] | 163 |
| SITEALAFFHCCLNPILY (modifications not checked) [CXCR4 285-302] | 188 |
| IGISIDSFILLEIIKQGC (modifications not checked) [CXCR4 257-274] | 734 |
| ALAFFHCCLNPILYAFLG (modifications not checked) [CXCR4 289-306] | 181 |
| NSLVLVISIFYHKLQSLT (modifications not checked) [STRL33 49-66] | 1260 and 1380 |
| LKSMTDIYLLNLAISDLF (modifications not checked) [CCR5 61-78] | 210 |
| EEHQAFLQFSKVFLPCMY (modifications not checked) [STRL33 21-38] | 2320 and 1820 |
| DYGFSSFNDSSQEEHQAF (modifications not checked) [STRL33 9-26] | 8580 and 8910 |

| Binder | counts minus background (counts per 20 min) |
| --- | --- |
| GLVGNSLVLVISIFYHKL (modifications not checked) [STRL33 45-62] | 164 and 95.5 |
| FHCCLNPILYAFLGAKFK (modifications not checked) [CXCR4 293-310] | 123 |
| IIISKLSHSKGHQKRKAL (modifications not checked) [CXCR4 221-238] | 157 |
| MYLVVFVCGLVGNSLVLV (modifications not checked) [STRL33 37-54] | 168 and 236 |
| ILLEIIKQGCEFENTVHK (modifications not checked) [CXCR4 265-282] | 117 |
| FKTSAQHALTSVSRGSSL (modifications not checked) [CXCR4 309-326] | 173 |
| NCKRLKSMTDIYLLNLAI (modifications not checked) [CCR5 57-74] | 25 |
| KLSHSKGHQKRKALKTTV (modifications not checked) [CXCR4 225-242] | 130 |
| LPYYIGISIDSFILLEII (modifications not checked) [CXCR4 253-270] | 439 |
| LSKGKRGGHSSVSTESES (modifications not checked) [CXCR4 329-346] | 185 |
| IDSFILLEIIKQGCEFEN (modifications not checked) [CXCR4 261-278] | 3470 |
| LVISIFYHKLQSLTDVFL (modifications not checked) [STRL33 53-70] | 1620 and 1780 |
| LYAFLGAKFKTSAQHALT (modifications not checked) [CXCR4 301-318] | 156 |
| MAEHDYHEDYGFSSFNDS (modifications not checked) [STRL33 1-18] | 1180 and 1320 |
| ILAFFACWLPYYIGISID (modifications not checked) [CXCR4 245-262] | 184 |
| LNPILYAFLGAKFKTSAQ (modifications not checked) [CXCR4 297-314] | 274 |
| HSSVSTESESSSFHSS (modifications not checked) [CXCR4 337-352] | 103 |
| SLKILSKGKRGGHSSVST (modifications not checked) [CXCR4 325-342] | 285 |
| SKGHQKRKALKTTVILIL (modifications not checked) [CXCR4 229-246] | 140 |
| ENTVHKWISITEALAFFH (modifications not checked) [CXCR4 277-294] | 315 |
| AFLQFSKVFLPCMYLVVF (modifications not checked) [STRL33 25-42] | 1420 and 1360 |
| SSFNDSSQEEHQAFLQFS (modifications not checked) [STRL33 13-30] | 2690 and 2760 |
| GCEFENTVHKWISITEAL (modifications not checked) [CXCR4 273-290] | 264 |
